Data taken from US20100249029A1 (Novo Nordisk, published 2010).
One block for each binder: values may come before it.

What was measured:
[1] = biological target: T1, ECD-PRL-R, soluble extracellular domain of the prolactin receptor, Ser-PRLR(1-210) (human, UniProt P16471 25-234); assay: HX-MS, 6 uM vPRL with or without 12 uM ECD-PRL-R
T1 construct: range 1-210
T1 sequence: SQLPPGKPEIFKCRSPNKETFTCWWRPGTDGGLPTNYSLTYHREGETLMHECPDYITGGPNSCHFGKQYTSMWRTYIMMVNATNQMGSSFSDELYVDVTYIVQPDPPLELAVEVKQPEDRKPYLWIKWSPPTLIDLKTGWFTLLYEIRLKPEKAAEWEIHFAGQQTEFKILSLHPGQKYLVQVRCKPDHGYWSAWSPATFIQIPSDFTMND
Procedure: Amide hydrogen/deuterium exchange (HX) was initiated by a 10-fold dilution of vPRL in the presence or absence of ECD-PRL-R into a deuterated buffer (i.e. 20 mM Tris, 150 mM NaCl, 99% D₂O, pH 7.4 (uncorrected value)). Non-deuterated controls were prepared by dilution into an identical protiated buffer. All HX reactions were carried out at 30° C. and contained 6 μM vPRL variant in the absence or presence of 12 μM ECD-PRL-R. At appropriate time intervals, aliquots of the HX reaction were quenched by addition of an equal volume of ice-cold quenching buffer (1.25 M Tris(2-carboxyethyl)phosphine hydrochloride, adjusted to pH 2.0 using NaOH) resulting in a final pH of 2.5 (uncorrected value). Quenched samples were immediately frozen in liquid N₂ and stored at −80° C.
The samples were run on a cooled high pressure liquid chromatography-mass spectrometry system for rapid desalting and mass analysis as described (Rand et al. J. Biol. Chem. 281, 23018 (2006)).

[2] = biological target: T2, Biotinylated prolactin receptor BirATag-Ser-PRLR (1-210) (human, UniProt P16471 25-234, biotinylated (BirA tag, biotin added during expression in E. coli)); assay: SPR (Biacore); biotinylated BirATag-Ser-PRLR (1-210) amine-coupled to CM5 chip, variant injected at 3.13-50 nM; STDEV 0.56
T2 construct: range 1-210; also called BirA-Ser-PRLR (1-210); not shown: BirA tag (biotin acceptor tag)
T2 sequence: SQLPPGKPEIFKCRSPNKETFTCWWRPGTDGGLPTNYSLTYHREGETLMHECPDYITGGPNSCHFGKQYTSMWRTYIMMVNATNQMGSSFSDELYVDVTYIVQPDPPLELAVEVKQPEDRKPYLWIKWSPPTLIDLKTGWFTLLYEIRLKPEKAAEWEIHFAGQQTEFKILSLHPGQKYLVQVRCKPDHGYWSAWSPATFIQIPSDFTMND
Procedure: (§1) Biotinylated prolactin receptor BirATag-Ser-PRLR (1-210) was diluted to 20 μg/ml in 10 mM sodium acetate pH 4.0 (Biacore BR-1003-49) and immobilized on a CM5 chip (Biacore BR-1006-68) with the immobilization reagents 1-ethyl-3-(3-dimethylaminopropyl) carbodiimide hydrochloride (EDC), N-hydroxysuccinimide (NHS) and 1.0 M ethanolamine-HCl pH 8.5 (Biacore BR1000-50). The immobilization level was 1500 RU. The PRL variants prepared as described in Example 5 were diluted to a series of concentrations as following: 3.13/6.25/12.5/25/50 nM and run through the PRLR immobilized chip using HBS-EP (10 mM HEPES pH 7.4; 150 mM NaCl; 3 mM EDTA; 0.005% v/v Tween-20) as the running buffer under the following conditions: […]

[3] = biological target: T2, Biotinylated prolactin receptor …; assay: SPR (Biacore); biotinylated BirATag-Ser-PRLR (1-210) amine-coupled to CM5 chip, variant injected at 3.13-50 nM; STDEV 0.22
Procedure: as §1

[4] = biological target: T2, Biotinylated prolactin receptor …; assay: SPR (Biacore); biotinylated BirATag-Ser-PRLR (1-210) amine-coupled to CM5 chip, variant injected at 3.13-50 nM; STDEV 0.51
Procedure: as §1

[5] = biological target: T2, Biotinylated prolactin receptor …; assay: SPR (Biacore); biotinylated BirATag-Ser-PRLR (1-210) amine-coupled to CM5 chip, variant injected at 3.13-50 nM; STDEV 0.028
Procedure: as §1

binding result [1]: binds
B1: vPRL: variant of PRL with amino acid residues 1-11 deleted and the mutations Q12S and G129R (ligand)
chain: SVTLRDLFDRAVVLSHYIHNLSSEMFSEFDKRYTHGRGFITKAINSCHTSSLATPEDKEQAQQMNQKDFLSLIVSILRSWNEPLYHLVTEVRGMQEAPEAILSKAVEIEEQTKRLLERMELIVSQVHPETKENEIYPVWSGLPSLQMADEESRLSAYYNLLHCLRRDSHKIDNYLKLLKCRIIHNNNC

Kd [2]: 4.9 nM
B2: Ser-PRL D68N, G129R (ligand)
chain: SLPICPGGAARCQVTLRDLFDRAVVLSHYIHNLSSEMFSEFDKRYTHGRGFITKAINSCHTSSLATPENKEQAQQMNQKDFLSLIVSILRSWNEPLYHLVTEVRGMQEAPEAILSKAVEIEEQTKRLLERMELIVSQVHPETKENEIYPVWSGLPSLQMADEESRLSAYYNLLHCLRRDSHKIDNYLKLLKCRIIHNNNC

Kd [3]: 2.8 nM
B3: Ser-PRL D68N, G129R, K190R (ligand)
chain: SLPICPGGAARCQVTLRDLFDRAVVLSHYIHNLSSEMFSEFDKRYTHGRGFITKAINSCHTSSLATPENKEQAQQMNQKDFLSLIVSILRSWNEPLYHLVTEVRGMQEAPEAILSKAVEIEEQTKRLLERMELIVSQVHPETKENEIYPVWSGLPSLQMADEESRLSAYYNLLHCLRRDSHKIDNYLKLLRCRIIHNNNC

Kd [4]: 3.3 nM
B4: Ser-PRL S33A, Q73L, M75T, N76S, F80L, G129R, K190R (ligand)
chain: SLPICPGGAARCQVTLRDLFDRAVVLSHYIHNLASEMFSEFDKRYTHGRGFITKAINSCHTSSLATPEDKEQALQTSQKDLLSLIVSILRSWNEPLYHLVTEVRGMQEAPEAILSKAVEIEEQTKRLLERMELIVSQVHPETKENEIYPVWSGLPSLQMADEESRLSAYYNLLHCLRRDSHKIDNYLKLLRCRIIHNNNC

Kd [5]: 2.4 nM
B5: Ser-PRL S61A, G129R, K190R (ligand)
chain: SLPICPGGAARCQVTLRDLFDRAVVLSHYIHNLSSEMFSEFDKRYTHGRGFITKAINSCHTASLATPEDKEQAQQMNQKDFLSLIVSILRSWNEPLYHLVTEVRGMQEAPEAILSKAVEIEEQTKRLLERMELIVSQVHPETKENEIYPVWSGLPSLQMADEESRLSAYYNLLHCLRRDSHKIDNYLKLLRCRIIHNNNC
